Data as given in article PMC4742251, “The Malarial Exported PFA0660w Is an Hsp40 Co-Chaperone of PfHsp70-x” (PLoS ONE, 2016).

Columns and labels:
Settings in all cases: both partners purified
HSPA1A-(His)6 [1] = biological target: T1, HSPA1A-(His)6 (human, UniProt P0DMV8 1-641); assay: SPR; Hsp70s amine-coupled to a GLC chip (ProteOn XPR36); BSA, Hsj1a or PFA0660w at 1 μM as analyte in PBST pH 7.4, with and without 1 mM ATP; read qualitatively
T1 construct: human Hsp70 (HSPA1A); also called human Hsp70; HSPAIA

(His)6-PfHsp70-x = (His)6-PfHsp70-x (Plasmodium falciparum); assay: SPR; Hsp70s amine-coupled to a GLC chip (ProteOn XPR36); PFA0660w 200-1000 nM as analyte in PBST pH 7.4 with 1 mM ATP; 60 μl/min, 90 s contact, 300 s dissociation; separate fits of association and dissociation, KD calculated from the rate constants
(His)6-PfHsp70-1 = biological target: T2, (His)6-PfHsp70-1 (Plasmodium falciparum, UniProt Q8IB24 1-677); assay: as above
T2 construct: PfHsp70-1, parasite-resident Hsp70 of Plasmodium falciparum

HSPA1A-(His)6 [2] = biological target: T1, HSPA1A-(His)6; assay: as above

T1 sequence (P0DMV8 whole entry): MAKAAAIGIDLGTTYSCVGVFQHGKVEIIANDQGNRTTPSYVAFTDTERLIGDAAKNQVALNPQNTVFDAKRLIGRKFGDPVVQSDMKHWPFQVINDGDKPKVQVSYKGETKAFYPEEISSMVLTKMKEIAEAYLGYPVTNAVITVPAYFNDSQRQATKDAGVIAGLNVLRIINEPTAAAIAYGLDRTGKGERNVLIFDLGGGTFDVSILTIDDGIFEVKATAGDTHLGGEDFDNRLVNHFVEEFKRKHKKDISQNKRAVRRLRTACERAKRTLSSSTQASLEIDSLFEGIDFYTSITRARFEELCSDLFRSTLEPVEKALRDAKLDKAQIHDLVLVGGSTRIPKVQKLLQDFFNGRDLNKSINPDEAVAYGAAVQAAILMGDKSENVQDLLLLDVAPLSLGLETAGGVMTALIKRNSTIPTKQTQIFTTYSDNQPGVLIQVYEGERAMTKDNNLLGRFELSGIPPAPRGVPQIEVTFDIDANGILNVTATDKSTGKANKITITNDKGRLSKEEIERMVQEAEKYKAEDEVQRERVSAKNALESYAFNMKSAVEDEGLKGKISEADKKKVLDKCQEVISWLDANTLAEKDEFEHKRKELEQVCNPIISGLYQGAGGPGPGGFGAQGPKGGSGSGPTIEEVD

B1: (His)6-Hsj1a (natural protein, UniProt P25686-2 1-277, looked up)
chain: MASYYEILDVPRSASADDIKKAYRRKALQWHPDKNPDNKEFAEKKFKEVAEAYEVLSDKHKREIYDRYGREGLTGTGTGPSRAEAGSGGPGFTFTFRSPEEVFREFFGSGDPFAELFDDLGPFSELQNRGSRHSGPFFTFSSSFPGHSDFSSSSFSFSPGAGAFRSVSTSTTFVQGRRITTRRIMENGQERVEVEEDGQLKSVTINGVPDDLALGLELSRREQQPSVTSRSGGTQVQQTPASCPLDSDLSEDEDLQLAMAYSLSEMEAAGKKPADVF
notes: Control Hsp40; also called DNAJB2a
binding result (HSPA1A-(His)6 [1]): binds

B2: (His)6-PFA0660w (natural protein)
chain: AEGNKNFFFNKDNGVFGKSSMDYYTLLGVDKGCSEDDLRRAYLKLAMKWHPDKHVNKGSKVEAEEKFKNICEAYSVLSDNEKRVKYDLFGMDALKQSGFNSSNFQGNISINPLEVFTKAYSFYNKYFSKSSGAGNHNIFTHIKNLYPLRNDFSEDESSYNDVEEYEVPLYVTLEDLYNGCTKTLKVTRKRYDGCYLYYEDYFINVDIKQGWNNGTKITFHGEGDQSSPDSYPGDLVLVLQTKKHSKFVRKSRDLYYRHIITLEQSLTGFDFVIKSLDNRDIHIQIDEVVKPDTKKVIKNEGMPYSRDPSIRGNLIVEFDIIYPNTIKKEQKKLIKEIFKESY
Kd ((His)6-PfHsp70-x): 37 nM | Kd ((His)6-PfHsp70-1): 251 nM | Kd (HSPA1A-(His)6 [2]): 64 nM
